In patent US20210252150A1:
Where two headings read alike, the source gives them in different places.

Legend:
[1] = target: HA of A/Taiwan/2/2013 (H6) (Influenza A virus A/Taiwan/2/2013 (H6)); test: ELISA, recombinant HA
[2] = target: HA of A/shearwater/Western Australia/2576/1979 (H15N9) (influenza A virus (H15N9)); test: ELISA, recombinant HA
[3] = target: HA of A/Fort Monthouth/1947 (H1N1) (influenza A virus (H1N1)); test: ELISA, recombinant HA
[4] = target: HA of A/Solomon Islands/03/2006 (H1N1) (influenza A virus (H1N1)); test: ELISA, recombinant HA
[5] = target: HA of A/Texas/36/1991 (H1N1) (influenza A virus (H1N1)); test: ELISA, recombinant HA
[6] = target: HA of A/black-headed gull/Sweden/4/1999 (H16) (influenza A virus (H16)); test: ELISA, recombinant HA
[7] = target: HA of A/Indonesia/5/2005 (H5N1) (influenza A virus (H5N1)); test: ELISA, recombinant HA
[8] = target: HA of A/Vietnam/1203/2004 (H5N1) (influenza A virus (H5N1)); test: ELISA, recombinant HA
[9] = target: dimeric recombinant soluble FcγRIIIa (CD16a), V176 (UniProt P08637)
dimeric recombinant soluble FcγRIIIa (CD16a), V176, sequence (P08637 17-208 F176V limits assumed): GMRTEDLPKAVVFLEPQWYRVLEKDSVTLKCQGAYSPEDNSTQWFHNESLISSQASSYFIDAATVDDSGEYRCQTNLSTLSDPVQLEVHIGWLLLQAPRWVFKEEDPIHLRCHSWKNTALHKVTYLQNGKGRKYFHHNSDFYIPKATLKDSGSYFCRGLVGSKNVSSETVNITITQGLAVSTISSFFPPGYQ

[10] = target: HA of A/Texas/50/2012 (H3N2) (influenza A virus (H3N2)); test: ELISA, recombinant HA
[11] = target: HA of A/Shanghai/2/2013 (H7N9) (influenza A virus (H7N9)); test: ELISA, recombinant HA
[12] = target: HA of A/duck/Memphis/546/1974 (H11) (Influenza A virus A/duck/Memphis/546/1974 (H11)); test: ELISA, recombinant HA
[13] = target: HA of A/California/07/2004 (H3) (Influenza A virus A/California/07/2004 (H3)); test: ELISA, recombinant HA
[14] = target: HA of A/Hong Kong/1073/99 (H9) (influenza A virus (H9)); test: ELISA, recombinant HA
[15] = target: HA of A/mallard duck/Astrakhan/263/1982 (H14N5) (influenza A virus (H14N5)); test: ELISA, recombinant HA
[16] = target: HA of A/chicken/Germany/N/1948 (H10N7) (influenza A virus (H10N7)); test: ELISA, recombinant HA
[17] = target: HA of A/Netherlands/219/2003 (H7N7) (influenza A virus (H7N7)); test: ELISA, recombinant HA
[18] = target: HA of A/turkey/Ontario/6118/1967 (H8) (Influenza A virus A/turkey/Ontario/6118/1967 (H8)); test: ELISA, recombinant HA
[19] = target: HA of A/Texas/50/2012 (H3N2) (influenza A virus (H3N2)); test: ELISA
[20] = target: HA of A/Shanghai/2/2013 (H7N9) (influenza A virus (H7N9)); test: ELISA
[21] = target: HA of A/Hong Kong/1073/99 (H9) (influenza A virus (H9)); test: ELISA
[22] = target: HA of A/Solomon Islands/03/2006 (H1N1) (influenza A virus (H1N1)); test: ELISA
[23] = target: HA of A/mallard duck/Astrakhan/263/1982 (H14N5) (influenza A virus (H14N5)); test: ELISA
[24] = target: HA of A/Texas/36/1991 (H1N1) (influenza A virus (H1N1)); test: ELISA
[25] = target: HA of A/black-headed gull/Sweden/4/1999 (H16) (influenza A virus (H16)); test: ELISA
[26] = target: HA of A/gull/Maryland/704/1977 (H13) (influenza A virus (H13)); test: ELISA
[27] = target: HA of A/Indonesia/5/2005 (H5N1) (influenza A virus (H5N1)); test: ELISA
[28] = target: HA of A/Switzerland/9715293/2013 (H3) (influenza A virus (H3)); test: ELISA
[29] = target: HA of A/Minnesota/11/10 (H3) (influenza A virus (H3)); test: ELISA
[30] = target: HA of A/Vietnam/1203/2004 (H5N1) (influenza A virus (H5N1)); test: ELISA
[31] = target: HA of A/New York/107/2003 (H7N2) (influenza A virus (H7N2)); test: ELISA
[32] = target: HA of A/Texas/50/2012 (H3N2) (influenza A virus (H3N2)); test: ELISA; remark: listed apart in the source
[33] = target: HA of A/Shanghai/2/2013 (H7N9) (influenza A virus (H7N9)); test: ELISA; remark: listed apart in the source
[34] = target: HA of A/shearwater/Western Australia/2576/1979 (H15N9) (influenza A virus (H15N9)); test: ELISA
[35] = target: HA of A/Hong Kong/1073/99 (H9) (influenza A virus (H9)); test: ELISA; remark: listed apart in the source
[36] = target: HA of A/Solomon Islands/03/2006 (H1N1) (influenza A virus (H1N1)); test: ELISA; remark: listed apart in the source
[37] = target: HA of A/mallard duck/Astrakhan/263/1982 (H14N5) (influenza A virus (H14N5)); test: ELISA; remark: listed apart in the source
[38] = target: HA of A/Texas/36/1991 (H1N1) (influenza A virus (H1N1)); test: ELISA; remark: listed apart in the source
[39] = target: HA of A/Netherlands/219/2003 (H7N7) (influenza A virus (H7N7)); test: ELISA
[40] = target: HA of A/Indonesia/5/2005 (H5N1) (influenza A virus (H5N1)); test: ELISA; remark: listed apart in the source
[41] = target: HA of A/Switzerland/9715293/2013 (H3) (influenza A virus (H3)); test: ELISA; remark: listed apart in the source
[42] = target: dimeric recombinant soluble FcγRIIIa (CD16a), V176 (UniProt P08637); remark: listed apart in the source
[43] = target: HA of A/Taiwan/2/2013 (H6) (Influenza A virus A/Taiwan/2/2013 (H6)); test: ELISA, recombinant HA; remark: listed apart in the source
[44] = target: HA of A/shearwater/Western Australia/2576/1979 (H15N9) (influenza A virus (H15N9)); test: ELISA, recombinant HA; remark: listed apart in the source
[45] = target: HA of A/Fort Monthouth/1947 (H1N1) (influenza A virus (H1N1)); test: ELISA, recombinant HA; remark: listed apart in the source
[46] = target: HA of A/chicken/Germany/N/1948 (H10N7) (influenza A virus (H10N7)); test: ELISA, recombinant HA; remark: listed apart in the source
[47] = target: HA of A/Netherlands/219/2003 (H7N7) (influenza A virus (H7N7)); test: ELISA, recombinant HA; remark: listed apart in the source
[48] = target: HA of A/Solomon Islands/03/2006 (H1N1) (influenza A virus (H1N1)); test: BLI, Fab on immobilized biotinylated HA
[49] = target: HA of A/Victoria/361/2011 (H3N2) (influenza A virus (H3N2)); test: BLI, Fab on immobilized biotinylated HA
[50] = target: HA of A/Indonesia/5/2005 (H5N1) (influenza A virus (H5N1)); test: BLI, Fab on immobilized biotinylated HA
[51] = target: HA of A/Vietnam/1203/2004 (H5N1) (influenza A virus (H5N1)); test: BLI, Fab on immobilized biotinylated HA
[52] = target: HA of A/Texas/50/2012 (H3N2) (influenza A virus (H3N2)); test: ELISA, recombinant HA; remark: listed apart in the source
[53] = target: HA of A/Shanghai/2/2013 (H7N9) (influenza A virus (H7N9)); test: ELISA, recombinant HA; remark: listed apart in the source
[54] = target: HA of A/Hong Kong/1073/99 (H9) (influenza A virus (H9)); test: ELISA, recombinant HA; remark: listed apart in the source
[55] = target: HA of A/Solomon Islands/03/2006 (H1N1) (influenza A virus (H1N1)); test: ELISA, recombinant HA; remark: listed apart in the source
[56] = target: HA of A/mallard duck/Astrakhan/263/1982 (H14N5) (influenza A virus (H14N5)); test: ELISA, recombinant HA; remark: listed apart in the source
[57] = target: HA of A/Texas/36/1991 (H1N1) (influenza A virus (H1N1)); test: ELISA, recombinant HA; remark: listed apart in the source
[58] = target: HA of A/Indonesia/5/2005 (H5N1) (influenza A virus (H5N1)); test: ELISA, recombinant HA; remark: listed apart in the source
[59] = target: HA of A/Switzerland/9715293/2013 (H3) (influenza A virus (H3)); test: ELISA, recombinant HA

Substance: CR6261 (antibody)
- EC50 [1]: 0.048 µg/mL
- EC50 [2]: 0.061 µg/mL
- EC50 [3]: 0.043 µg/mL
- EC50 [4]: 0.013 µg/mL
- EC50 [5]: 0.025 µg/mL
- EC50 [6]: 0.245 µg/mL
- EC50 [7]: 0.026 µg/mL
- EC50 [8]: 0.031 µg/mL

Substance: FluA-20 (hybridoma-produced IgG) (antibody)
- EC50 (read off the curve) [9]: 0.3 µg/mL
- EC50 [10]: 0.006 µg/mL
- EC50 [1]: 0.061 µg/mL
- EC50 [11]: 0.012 µg/mL
- EC50 [2]: 0.007 µg/mL
- EC50 [12]: 0.072 µg/mL
- EC50 [3]: 0.007 µg/mL
- EC50 [13]: 0.008 µg/mL
- EC50 [14]: 0.007 µg/mL
- EC50 [4]: 0.008 µg/mL
- EC50 [15]: 0.007 µg/mL
- EC50 [16]: 0.037 µg/mL
- EC50 [5]: 0.009 µg/mL
- EC50 [17]: 0.006 µg/mL
- EC50 [18]: 0.005 µg/mL
- EC50 [7]: 0.016 µg/mL
- EC50 [8]: 0.142 µg/mL
- EC50 [19]: 0.004 µg/mL
- EC50 [20]: 0.066 µg/mL
- EC50 [21]: 0.009 µg/mL
- EC50 [22]: 0.005 µg/mL
- EC50 [23]: 0.013 µg/mL
- EC50 [24]: 0.004 µg/mL
- EC50 [25]: > 10 µg/mL
- EC50 [26]: 0.07 µg/mL
- EC50 [27]: 0.085 µg/mL
- EC50 [28]: 0.019 µg/mL
- EC50 [29]: > 10 µg/mL
- EC50 [30]: 0.283 µg/mL
- EC50 [31]: 0.808 µg/mL
- EC50 [32]: 0.09 µg/mL
- EC50 [33]: 0.12 µg/mL
- EC50 [34]: 0.08 µg/mL
- EC50 [35]: 0.41 µg/mL
- EC50 [36]: 0.05 µg/mL
- EC50 [37]: 0.95 µg/mL
- EC50 [38]: 0.05 µg/mL
- EC50 [39]: 0.05 µg/mL
- EC50 [40]: 6.05 µg/mL
- EC50 [41]: 0.55 µg/mL
- EC50 (read off the curve) [42]: 0.3 µg/mL
- EC50 [43]: 0.147 µg/mL
- EC50 [44]: 0.015 µg/mL
- EC50 [45]: 0.012 µg/mL
- EC50 [46]: 0.031 µg/mL
- EC50 [47]: 0.029 µg/mL

Substance: FluA-20 Fab
- Kd [48]: 2 nM
- Kd [49]: 15 nM
- Kd [50]: 88 nM
- Kd [51]: 122 nM

Substance: rFluA-20 (recombinant FluA-20 IgG) (antibody)
- EC50 [1]: 0.063 µg/mL
- EC50 [12]: 0.076 µg/mL
- EC50 [3]: 0.007 µg/mL
- EC50 [13]: 0.009 µg/mL
- EC50 [16]: 0.041 µg/mL
- EC50 [18]: 0.005 µg/mL
- EC50 [8]: 0.133 µg/mL
- EC50 [32]: 0.007 µg/mL
- EC50 [33]: 0.013 µg/mL
- EC50 [34]: 0.007 µg/mL
- EC50 [35]: 0.007 µg/mL
- EC50 [36]: 0.008 µg/mL
- EC50 [37]: 0.007 µg/mL
- EC50 [38]: 0.008 µg/mL
- EC50 [39]: 0.005 µg/mL
- EC50 [40]: 0.016 µg/mL
- EC50 [52]: 0.086 µg/mL
- EC50 [43]: 0.229 µg/mL
- EC50 [53]: 0.117 µg/mL
- EC50 [44]: 0.136 µg/mL
- EC50 [45]: 0.02 µg/mL
- EC50 [54]: 0.407 µg/mL
- EC50 [55]: 0.047 µg/mL
- EC50 [56]: 0.071 µg/mL
- EC50 [46]: 0.129 µg/mL
- EC50 [57]: 0.046 µg/mL
- EC50 [47]: 0.054 µg/mL
- EC50 [58]: 6.05 µg/mL
- EC50 [59]: 0.548 µg/mL
